The values below come from paper PMC3829318.

Series [1] in a line: transient expression in N. benthamiana leaves. The conditions noted are these: glycan lost; control: wild-type KOR1-Fc-GFP.
A short description of series [2]: anti-KOR1 immunoblot of Sf21 culture medium. The conditions noted are these: glycan lost; control: rKOR1 WT. Background: In western blotting, separated proteins are transferred to a membrane and probed.
Series [3] in a line: Golgi processing of remaining glycopeptides, LC-ESI-MS, N. benthamiana. The conditions noted are these: glycan lost; control: wild-type KOR1-Fc-GFP.
The nature of series [4]: CMC hydrolysis after non-denaturing Endo H.
A short description of series [5]: CMC hydrolysis after non-denaturing deglycosylation. The conditions noted are these: glycan lost; control: untreated rKOR1 WT.
Setting [6] is: glycan lost, control: Endo H-digested rKOR1 WT.

B1: KORRIGAN1 (KOR1): N324Q/N345Q (protein)
parent chain: MYGRDPWGGPLEINTADSATDDDRSRNLNDLDRAALSRPLDETQQSWLLGPTEQKKKKYVDLGCIIVSRKIFVWTVGTLVAAALLAGFITLIVKTVPRHHPKTPPPDNYTIALHKALKFFNAQKSGKLPKHNNVSWRGNSGLQDGKGETGSFYKDLVGGYYDAGDAIKFNFPMAYAMTMLSWSVIEYSAKYEAAGELTHVKELIKWGTDYFLKTFNSTADSIDDLVSQVGSGNTDDGNTDPNDHYCWMRPEDMDYKRPVTTCNGGCSDLAAEMAAALASASIVFKDNKEYSKKLVHGAKVVYQFGRTRRGRYSAGTAESSKFYNSSMYWDEFIWGGAWMYYATGNVTYLNLITQPTMAKHAGAFWGGPYYGVFSWDNKLAGAQLLLSRLRLFLSPGYPYEEILRTFHNQTSIVMCSYLPIFNKFNRTNGGLIELNHGAPQPLQYSVNAAFLATLYSDYLDAADTPGWYCGPNFYSTSVLRDFARSQIDYILGKNPRKMSYVVGFGTKYPRHVHHRGASIPKNKVKYNCKGGWKWRDSKKPNPNTIEGAMVAGPDKRDGYRDVRMNYNYTEPTLAGNAGLVAALVALSGEEEATGKIDKNTIFSAVPPLFPTPPPPPAPWKP
With B1, the expression_or_secretion entry is listed as “no change” in series [1] and “decreases” in series [2]. Also, in series [3], the localisation_or_trafficking entry is on record as “no change”.

B2: KORRIGAN1 (KOR1): N216Q + Endo H (protein)
parent chain: MYGRDPWGGPLEINTADSATDDDRSRNLNDLDRAALSRPLDETQQSWLLGPTEQKKKKYVDLGCIIVSRKIFVWTVGTLVAAALLAGFITLIVKTVPRHHPKTPPPDNYTIALHKALKFFNAQKSGKLPKHNNVSWRGNSGLQDGKGETGSFYKDLVGGYYDAGDAIKFNFPMAYAMTMLSWSVIEYSAKYEAAGELTHVKELIKWGTDYFLKTFNSTADSIDDLVSQVGSGNTDDGNTDPNDHYCWMRPEDMDYKRPVTTCNGGCSDLAAEMAAALASASIVFKDNKEYSKKLVHGAKVVYQFGRTRRGRYSAGTAESSKFYNSSMYWDEFIWGGAWMYYATGNVTYLNLITQPTMAKHAGAFWGGPYYGVFSWDNKLAGAQLLLSRLRLFLSPGYPYEEILRTFHNQTSIVMCSYLPIFNKFNRTNGGLIELNHGAPQPLQYSVNAAFLATLYSDYLDAADTPGWYCGPNFYSTSVLRDFARSQIDYILGKNPRKMSYVVGFGTKYPRHVHHRGASIPKNKVKYNCKGGWKWRDSKKPNPNTIEGAMVAGPDKRDGYRDVRMNYNYTEPTLAGNAGLVAALVALSGEEEATGKIDKNTIFSAVPPLFPTPPPPPAPWKP
For the protein B2, the enzymatic_activity entry in series [4] (setting [6]) is given as “no change”.

B3: KORRIGAN1 (KOR1): kifunensine (rKOR1 KIF) + Endo H (protein)
parent chain: MYGRDPWGGPLEINTADSATDDDRSRNLNDLDRAALSRPLDETQQSWLLGPTEQKKKKYVDLGCIIVSRKIFVWTVGTLVAAALLAGFITLIVKTVPRHHPKTPPPDNYTIALHKALKFFNAQKSGKLPKHNNVSWRGNSGLQDGKGETGSFYKDLVGGYYDAGDAIKFNFPMAYAMTMLSWSVIEYSAKYEAAGELTHVKELIKWGTDYFLKTFNSTADSIDDLVSQVGSGNTDDGNTDPNDHYCWMRPEDMDYKRPVTTCNGGCSDLAAEMAAALASASIVFKDNKEYSKKLVHGAKVVYQFGRTRRGRYSAGTAESSKFYNSSMYWDEFIWGGAWMYYATGNVTYLNLITQPTMAKHAGAFWGGPYYGVFSWDNKLAGAQLLLSRLRLFLSPGYPYEEILRTFHNQTSIVMCSYLPIFNKFNRTNGGLIELNHGAPQPLQYSVNAAFLATLYSDYLDAADTPGWYCGPNFYSTSVLRDFARSQIDYILGKNPRKMSYVVGFGTKYPRHVHHRGASIPKNKVKYNCKGGWKWRDSKKPNPNTIEGAMVAGPDKRDGYRDVRMNYNYTEPTLAGNAGLVAALVALSGEEEATGKIDKNTIFSAVPPLFPTPPPPPAPWKP
Turning to B3, the enzymatic_activity entry in series [4] (glycan changed form, control: Endo H-treated rKOR1 WT) is “decreases”.

B4: KORRIGAN1 (KOR1): N408Q + Endo H (protein)
parent chain: MYGRDPWGGPLEINTADSATDDDRSRNLNDLDRAALSRPLDETQQSWLLGPTEQKKKKYVDLGCIIVSRKIFVWTVGTLVAAALLAGFITLIVKTVPRHHPKTPPPDNYTIALHKALKFFNAQKSGKLPKHNNVSWRGNSGLQDGKGETGSFYKDLVGGYYDAGDAIKFNFPMAYAMTMLSWSVIEYSAKYEAAGELTHVKELIKWGTDYFLKTFNSTADSIDDLVSQVGSGNTDDGNTDPNDHYCWMRPEDMDYKRPVTTCNGGCSDLAAEMAAALASASIVFKDNKEYSKKLVHGAKVVYQFGRTRRGRYSAGTAESSKFYNSSMYWDEFIWGGAWMYYATGNVTYLNLITQPTMAKHAGAFWGGPYYGVFSWDNKLAGAQLLLSRLRLFLSPGYPYEEILRTFHNQTSIVMCSYLPIFNKFNRTNGGLIELNHGAPQPLQYSVNAAFLATLYSDYLDAADTPGWYCGPNFYSTSVLRDFARSQIDYILGKNPRKMSYVVGFGTKYPRHVHHRGASIPKNKVKYNCKGGWKWRDSKKPNPNTIEGAMVAGPDKRDGYRDVRMNYNYTEPTLAGNAGLVAALVALSGEEEATGKIDKNTIFSAVPPLFPTPPPPPAPWKP
On to B4, for which the enzymatic_activity result in series [4] (setting [6]) is “no change”.

B5: KORRIGAN1 (KOR1): Endo H (protein)
parent chain: MYGRDPWGGPLEINTADSATDDDRSRNLNDLDRAALSRPLDETQQSWLLGPTEQKKKKYVDLGCIIVSRKIFVWTVGTLVAAALLAGFITLIVKTVPRHHPKTPPPDNYTIALHKALKFFNAQKSGKLPKHNNVSWRGNSGLQDGKGETGSFYKDLVGGYYDAGDAIKFNFPMAYAMTMLSWSVIEYSAKYEAAGELTHVKELIKWGTDYFLKTFNSTADSIDDLVSQVGSGNTDDGNTDPNDHYCWMRPEDMDYKRPVTTCNGGCSDLAAEMAAALASASIVFKDNKEYSKKLVHGAKVVYQFGRTRRGRYSAGTAESSKFYNSSMYWDEFIWGGAWMYYATGNVTYLNLITQPTMAKHAGAFWGGPYYGVFSWDNKLAGAQLLLSRLRLFLSPGYPYEEILRTFHNQTSIVMCSYLPIFNKFNRTNGGLIELNHGAPQPLQYSVNAAFLATLYSDYLDAADTPGWYCGPNFYSTSVLRDFARSQIDYILGKNPRKMSYVVGFGTKYPRHVHHRGASIPKNKVKYNCKGGWKWRDSKKPNPNTIEGAMVAGPDKRDGYRDVRMNYNYTEPTLAGNAGLVAALVALSGEEEATGKIDKNTIFSAVPPLFPTPPPPPAPWKP
With B5, in series [5], the “enzymatic_activity, percent_of_wt” value is given as “decreases, loss of 20–30% vs 100”.

B6: KORRIGAN1 (KOR1): PNGase F (protein)
parent chain: MYGRDPWGGPLEINTADSATDDDRSRNLNDLDRAALSRPLDETQQSWLLGPTEQKKKKYVDLGCIIVSRKIFVWTVGTLVAAALLAGFITLIVKTVPRHHPKTPPPDNYTIALHKALKFFNAQKSGKLPKHNNVSWRGNSGLQDGKGETGSFYKDLVGGYYDAGDAIKFNFPMAYAMTMLSWSVIEYSAKYEAAGELTHVKELIKWGTDYFLKTFNSTADSIDDLVSQVGSGNTDDGNTDPNDHYCWMRPEDMDYKRPVTTCNGGCSDLAAEMAAALASASIVFKDNKEYSKKLVHGAKVVYQFGRTRRGRYSAGTAESSKFYNSSMYWDEFIWGGAWMYYATGNVTYLNLITQPTMAKHAGAFWGGPYYGVFSWDNKLAGAQLLLSRLRLFLSPGYPYEEILRTFHNQTSIVMCSYLPIFNKFNRTNGGLIELNHGAPQPLQYSVNAAFLATLYSDYLDAADTPGWYCGPNFYSTSVLRDFARSQIDYILGKNPRKMSYVVGFGTKYPRHVHHRGASIPKNKVKYNCKGGWKWRDSKKPNPNTIEGAMVAGPDKRDGYRDVRMNYNYTEPTLAGNAGLVAALVALSGEEEATGKIDKNTIFSAVPPLFPTPPPPPAPWKP
Consider B6, for which the “enzymatic_activity, percent_of_wt” value in series [5] is on record as “decreases, ∼50 vs 100”.

B7: KORRIGAN1 (KOR1): N324Q + Endo H (protein)
parent chain: MYGRDPWGGPLEINTADSATDDDRSRNLNDLDRAALSRPLDETQQSWLLGPTEQKKKKYVDLGCIIVSRKIFVWTVGTLVAAALLAGFITLIVKTVPRHHPKTPPPDNYTIALHKALKFFNAQKSGKLPKHNNVSWRGNSGLQDGKGETGSFYKDLVGGYYDAGDAIKFNFPMAYAMTMLSWSVIEYSAKYEAAGELTHVKELIKWGTDYFLKTFNSTADSIDDLVSQVGSGNTDDGNTDPNDHYCWMRPEDMDYKRPVTTCNGGCSDLAAEMAAALASASIVFKDNKEYSKKLVHGAKVVYQFGRTRRGRYSAGTAESSKFYNSSMYWDEFIWGGAWMYYATGNVTYLNLITQPTMAKHAGAFWGGPYYGVFSWDNKLAGAQLLLSRLRLFLSPGYPYEEILRTFHNQTSIVMCSYLPIFNKFNRTNGGLIELNHGAPQPLQYSVNAAFLATLYSDYLDAADTPGWYCGPNFYSTSVLRDFARSQIDYILGKNPRKMSYVVGFGTKYPRHVHHRGASIPKNKVKYNCKGGWKWRDSKKPNPNTIEGAMVAGPDKRDGYRDVRMNYNYTEPTLAGNAGLVAALVALSGEEEATGKIDKNTIFSAVPPLFPTPPPPPAPWKP
Take B7: the enzymatic_activity entry in series [4] (setting [6]) is “no change”.

B8: KORRIGAN1 (KOR1): N345Q + Endo H (protein)
parent chain: MYGRDPWGGPLEINTADSATDDDRSRNLNDLDRAALSRPLDETQQSWLLGPTEQKKKKYVDLGCIIVSRKIFVWTVGTLVAAALLAGFITLIVKTVPRHHPKTPPPDNYTIALHKALKFFNAQKSGKLPKHNNVSWRGNSGLQDGKGETGSFYKDLVGGYYDAGDAIKFNFPMAYAMTMLSWSVIEYSAKYEAAGELTHVKELIKWGTDYFLKTFNSTADSIDDLVSQVGSGNTDDGNTDPNDHYCWMRPEDMDYKRPVTTCNGGCSDLAAEMAAALASASIVFKDNKEYSKKLVHGAKVVYQFGRTRRGRYSAGTAESSKFYNSSMYWDEFIWGGAWMYYATGNVTYLNLITQPTMAKHAGAFWGGPYYGVFSWDNKLAGAQLLLSRLRLFLSPGYPYEEILRTFHNQTSIVMCSYLPIFNKFNRTNGGLIELNHGAPQPLQYSVNAAFLATLYSDYLDAADTPGWYCGPNFYSTSVLRDFARSQIDYILGKNPRKMSYVVGFGTKYPRHVHHRGASIPKNKVKYNCKGGWKWRDSKKPNPNTIEGAMVAGPDKRDGYRDVRMNYNYTEPTLAGNAGLVAALVALSGEEEATGKIDKNTIFSAVPPLFPTPPPPPAPWKP
For B8, in series [4] (setting [6]), the enzymatic_activity result is “no change”.

B9: KORRIGAN1 (KOR1): N425Q + Endo H (protein)
parent chain: MYGRDPWGGPLEINTADSATDDDRSRNLNDLDRAALSRPLDETQQSWLLGPTEQKKKKYVDLGCIIVSRKIFVWTVGTLVAAALLAGFITLIVKTVPRHHPKTPPPDNYTIALHKALKFFNAQKSGKLPKHNNVSWRGNSGLQDGKGETGSFYKDLVGGYYDAGDAIKFNFPMAYAMTMLSWSVIEYSAKYEAAGELTHVKELIKWGTDYFLKTFNSTADSIDDLVSQVGSGNTDDGNTDPNDHYCWMRPEDMDYKRPVTTCNGGCSDLAAEMAAALASASIVFKDNKEYSKKLVHGAKVVYQFGRTRRGRYSAGTAESSKFYNSSMYWDEFIWGGAWMYYATGNVTYLNLITQPTMAKHAGAFWGGPYYGVFSWDNKLAGAQLLLSRLRLFLSPGYPYEEILRTFHNQTSIVMCSYLPIFNKFNRTNGGLIELNHGAPQPLQYSVNAAFLATLYSDYLDAADTPGWYCGPNFYSTSVLRDFARSQIDYILGKNPRKMSYVVGFGTKYPRHVHHRGASIPKNKVKYNCKGGWKWRDSKKPNPNTIEGAMVAGPDKRDGYRDVRMNYNYTEPTLAGNAGLVAALVALSGEEEATGKIDKNTIFSAVPPLFPTPPPPPAPWKP
Take B9: the enzymatic_activity result in series [4] (setting [6]) was “no change”.
